In patent US20260347504 (published 2026) one finds Kd data, which are given here for one molecule.

One experiment addresses human RAGE ECD (human, UniProt Q15109). The experiment in a line: SPR, RAGE immobilized. (In general: Surface plasmon resonance follows binding to a sensor surface in real time, without labels.)
In another experiment the target is human TLR4 ECD (human, UniProt O00206). The experiment in a line: SPR, TLR4 immobilized.
human TLR4 ECD, sequence (O00206 1-631): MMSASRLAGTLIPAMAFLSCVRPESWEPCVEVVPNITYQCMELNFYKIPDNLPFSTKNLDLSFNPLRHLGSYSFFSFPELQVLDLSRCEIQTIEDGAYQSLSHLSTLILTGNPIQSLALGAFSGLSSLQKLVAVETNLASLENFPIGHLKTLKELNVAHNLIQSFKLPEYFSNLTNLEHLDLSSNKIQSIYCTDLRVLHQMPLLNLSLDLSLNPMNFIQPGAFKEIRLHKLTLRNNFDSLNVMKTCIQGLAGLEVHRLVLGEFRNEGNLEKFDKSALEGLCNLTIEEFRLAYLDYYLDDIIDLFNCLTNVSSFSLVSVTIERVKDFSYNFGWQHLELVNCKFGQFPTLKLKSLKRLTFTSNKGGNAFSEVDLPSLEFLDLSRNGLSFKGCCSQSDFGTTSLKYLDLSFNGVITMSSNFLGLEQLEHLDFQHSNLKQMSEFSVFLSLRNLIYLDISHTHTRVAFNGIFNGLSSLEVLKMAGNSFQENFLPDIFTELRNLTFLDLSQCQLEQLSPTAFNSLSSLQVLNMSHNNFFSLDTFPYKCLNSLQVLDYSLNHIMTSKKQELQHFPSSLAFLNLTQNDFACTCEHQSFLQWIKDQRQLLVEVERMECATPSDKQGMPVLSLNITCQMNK

human RAGE ECD, sequence (Q15109 1-344): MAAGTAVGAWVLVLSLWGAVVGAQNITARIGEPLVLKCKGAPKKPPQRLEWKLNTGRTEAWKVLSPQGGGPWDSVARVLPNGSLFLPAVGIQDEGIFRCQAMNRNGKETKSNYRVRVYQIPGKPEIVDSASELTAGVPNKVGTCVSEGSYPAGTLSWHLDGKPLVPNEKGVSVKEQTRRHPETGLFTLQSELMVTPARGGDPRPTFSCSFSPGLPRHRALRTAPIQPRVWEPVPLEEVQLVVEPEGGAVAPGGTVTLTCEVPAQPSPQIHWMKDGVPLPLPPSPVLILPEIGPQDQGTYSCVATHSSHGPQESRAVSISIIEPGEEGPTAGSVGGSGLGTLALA

B1: human pCTS-L (protein)
chain: ATLTFDHSLEAQWTKWKAMHNRLYGMNEEGWRRAVWEKNMKMIELHNQEYREGKHSFTMAMNAFGDMTSEEFRQVMNGFQNRKPRKGKVFQEPLFYEAPRSVDWREKGYVTPVKNQGQCGSCWAFSATGALEGQMFRKTGRLISLSEQNLVDCSGPQGNEGCNGGLMDYAFQYVQDNGGLDSEESYPYEATEESCKYNPKYSVANDTGFVDIPKQEKALMKAVATVGPISVAIDAGHESFLFYKEGIYFEPDCSSEDMDHGVLVVGYGFESTESDNNKYWLVKNSWGEEWGMGGYVKMAKDRRNHCGIASAASYPTV
As usually defined, the Kd is a measure of binding affinity in units of concentration. Higher therefore signals lower affinity. Consider B1, for which the Kd worked out at 3 nM in the experiment with human RAGE ECD and 64.4 nM with human TLR4 ECD.
